# Experimental data published in patent publication US20240116985A1, “STAPLED PEPTIDES AND METHODS THEREOF” (priority 2020, published 2024).
# Starred links: 1 amine or outer side, 2 acyl side, 3 side chain; linkers in the order of their positions; H or OH if unused. Positions of bridges follow the written chain, without caps; N, C: chain ends. Non-standard residues stand in square brackets, D forms with d. Primed or numbered codes have the meaning given here. PyrS2″ = (S)-3-amino-1-((pent-4-en-1-yloxy)carbonyl)pyrrolidine-3-carboxylic acid (stapling residue), C=CCCCOC(=O)N1CC[C@@](N[*:1])(C(=O)[*:2])C1; B5(5) = 2,2-bis(4-pentenyl)glycine, 2-amino-2-(pent-4-en-1-yl)hept-6-enoic acid (stitching residue), C=CCCCC(CCCC=C)(N[*:1])C(=O)[*:2]; TfeGA = (S)-2-amino-3-((carboxymethyl)(2,2,2-trifluoroethyl)amino)propanoic acid, O=C([C@H](CN(CC(=O)[*:3])CC(F)(F)F)N[*:1])[*:2]; PyrS2 = (S)-3-amino-1-((pent-4-en-1-yloxy)carbonyl)pyrrolidine-3-carboxylic acid, C=CCCCOC(=O)N1CC[C@@](N[*:1])(C(=O)[*:2])C1; B5(22) = 2-amino-2-(pent-4-en-1-yl)hept-6-enoic acid (two alkene side chains), C=CCCCC(CCCC=C)(N[*:1])C(=O)[*:2]; B5 = 2-amino-2-(pent-4-en-1-yl)hept-6-enoic acid, C=CCCCC(CCCC=C)(N[*:1])C(=O)[*:2]; Phe(3-COOH) = N[C@@H](Cc1cccc(C(=O)O)c1)C(=O)O; Phe(2-CF3) = N[C@@H](Cc1ccccc1C(F)(F)F)C(=O)O; Phe(3-Br) = N[C@@H](Cc1cccc(Br)c1)C(=O)O; Bta = N[C@@H](Cc1csc2ccccc12)C(=O)O; αAllylPro = C=CC[C@@]1(C(=O)O)CCCN1; tBuAla = CC(C)(C)C[C@H](N)C(=O)O; 3Thi = N[C@@H](Cc1ccsc1)C(=O)O
# Target: full-length beta-Catenin (Uniprot ID P35222) (Homo sapiens (Human)) (UniProt P35222)
# Test: fluorescence polarization competition; full-length beta-catenin, 5FAM-TCF4(10-53) probe
# Target sequence in this assay (P35222 2-781 limits assumed): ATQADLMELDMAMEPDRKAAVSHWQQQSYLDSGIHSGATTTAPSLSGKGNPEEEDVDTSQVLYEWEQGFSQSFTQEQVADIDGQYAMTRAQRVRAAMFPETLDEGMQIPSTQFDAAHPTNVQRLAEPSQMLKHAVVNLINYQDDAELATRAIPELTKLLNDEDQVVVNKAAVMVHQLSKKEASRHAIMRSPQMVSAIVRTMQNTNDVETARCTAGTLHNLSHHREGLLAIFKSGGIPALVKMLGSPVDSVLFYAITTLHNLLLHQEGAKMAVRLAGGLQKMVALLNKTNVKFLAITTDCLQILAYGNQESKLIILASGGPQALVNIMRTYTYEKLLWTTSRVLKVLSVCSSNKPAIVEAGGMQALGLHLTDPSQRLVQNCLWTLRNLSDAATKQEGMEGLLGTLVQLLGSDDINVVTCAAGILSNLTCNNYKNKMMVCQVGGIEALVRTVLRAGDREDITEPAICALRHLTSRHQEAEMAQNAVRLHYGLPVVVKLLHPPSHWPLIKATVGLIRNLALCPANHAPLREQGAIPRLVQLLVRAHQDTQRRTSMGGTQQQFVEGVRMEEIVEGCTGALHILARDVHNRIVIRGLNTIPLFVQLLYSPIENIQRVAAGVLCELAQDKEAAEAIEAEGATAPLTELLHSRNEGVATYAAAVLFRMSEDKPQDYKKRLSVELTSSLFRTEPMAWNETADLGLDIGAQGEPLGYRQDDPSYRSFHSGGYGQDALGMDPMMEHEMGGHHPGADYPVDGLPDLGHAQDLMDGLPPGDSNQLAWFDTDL
row,Binder,IC50
1,"Ac-[αAllylPro]D[tBuAla][B5]D[Phe(3-COOH)]AAFL[PyrS2][Phe(3-Br)]FQ-NH2 (staple 1-4, 4-11) [I-2153]",1480 nM
2,"Ac-[αAllylPro]D[tBuAla][B5(22)]D[TfeGA]AAFN[PyrS2][3Thi][Bta]T-NH2 (staple 1-4, 4-11; also: staple isomer composition, earlier-eluting HPLC peak) [I-942]",1280 nM
3,"Ac-[αAllylPro]D[tBuAla][B5(5)]D[TfeGA]AAFN[PyrS2″][3Thi][Bta]A-NH2 (staple 1-4, 4-11; also: staple isomer composition, earlier-eluting HPLC peak) [I-944]",761 nM
4,"Ac-[αAllylPro]D[tBuAla][B5]NTAAFH[PyrS2][3Thi][Bta]Q-NH2 (staple 1-4, 4-11; also: earlier eluting HPLC isomer) [I-2146]",248 nM
5,"Ac-[αAllylPro]D[tBuAla][B5(5)]D[TfeGA]AAFN[PyrS2″][3Thi][Bta]A-NH2 (staple 1-4, 4-11; also: staple isomer composition, later-eluting HPLC peak) [I-945]",1080 nM
6,"Ac-[αAllylPro]D[tBuAla][B5]D[Phe(3-COOH)]AAFL[PyrS2][Phe(3-Br)][Phe(2-CF3)]Q-NH2 (staple 1-4, 4-11) [I-2155]",10000 nM
7,"Ac-[αAllylPro]D[tBuAla][B5]TTAAFN[PyrS2][3Thi][Bta]Q-NH2 (staple 1-4, 4-11; also: later eluting HPLC isomer) [I-2149]",7180 nM
8,"Ac-[αAllylPro]D[tBuAla][B5(5)]D[TfeGA]AAFN[PyrS2″][3Thi][Bta]T-NH2 (staple 1-4, 4-11; also: staple isomer composition, later-eluting HPLC peak) [I-943]",1990 nM
9,"Ac-[αAllylPro]D[tBuAla][B5]NTAAFT[PyrS2][3Thi][Bta]F-NH2 (staple 1-4, 4-11; also: later eluting HPLC isomer) [I-2145]",2070 nM
10,"Ac-[αAllylPro]D[tBuAla][B5(22)]D[TfeGA]AAFN[PyrS2][3Thi][Bta]S-NH2 (staple 1-4, 4-11; also: staple isomer composition, earlier-eluting HPLC peak) [I-940]",1740 nM
11,"Ac-[αAllylPro]D[tBuAla][B5]TTAAFN[PyrS2][3Thi][Bta]Q-NH2 (staple 1-4, 4-11; also: earlier eluting HPLC isomer) [I-2148]",10000 nM
12,"Ac-[αAllylPro]D[tBuAla][B5]NTAAFH[PyrS2][3Thi][Bta]Q-NH2 (staple 1-4, 4-11; also: later eluting HPLC isomer) [I-2147]",390 nM
13,"Ac-[αAllylPro]D[tBuAla][B5(22)]D[TfeGA]AAFN[PyrS2][3Thi][Bta]S-NH2 (staple 1-4, 4-11; also: staple isomer composition, later-eluting HPLC peak) [I-941]",2110 nM

# Target: full-length beta-Catenin (Uniprot ID P35222) (Homo sapiens (Human)) (UniProt P35222)
# Test: fluorescence polarization competition; 10 nM full-length beta-catenin + 10 nM 5FAM-TCF4(10-53) probe
# Target sequence in this assay (P35222 whole entry): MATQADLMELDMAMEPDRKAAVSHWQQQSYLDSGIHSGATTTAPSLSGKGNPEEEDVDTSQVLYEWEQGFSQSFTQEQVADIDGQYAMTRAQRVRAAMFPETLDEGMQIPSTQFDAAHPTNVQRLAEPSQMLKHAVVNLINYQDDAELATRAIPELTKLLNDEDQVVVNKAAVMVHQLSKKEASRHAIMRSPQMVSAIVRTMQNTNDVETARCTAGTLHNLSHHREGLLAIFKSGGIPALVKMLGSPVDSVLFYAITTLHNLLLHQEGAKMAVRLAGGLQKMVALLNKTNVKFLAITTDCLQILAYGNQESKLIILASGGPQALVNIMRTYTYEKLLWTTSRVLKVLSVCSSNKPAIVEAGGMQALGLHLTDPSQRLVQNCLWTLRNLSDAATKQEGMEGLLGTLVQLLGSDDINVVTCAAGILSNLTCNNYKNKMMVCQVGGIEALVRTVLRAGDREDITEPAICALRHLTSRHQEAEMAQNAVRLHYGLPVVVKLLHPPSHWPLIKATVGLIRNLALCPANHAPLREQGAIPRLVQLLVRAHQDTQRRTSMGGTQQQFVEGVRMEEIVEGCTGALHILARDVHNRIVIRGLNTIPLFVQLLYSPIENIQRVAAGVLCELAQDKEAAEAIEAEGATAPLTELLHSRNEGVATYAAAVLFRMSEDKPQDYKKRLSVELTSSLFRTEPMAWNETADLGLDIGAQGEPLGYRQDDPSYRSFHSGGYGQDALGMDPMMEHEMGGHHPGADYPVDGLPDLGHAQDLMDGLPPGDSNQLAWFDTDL
row,Binder,EC50
1,"Ac-[αAllylPro]D[tBuAla][B5(22)]D[TfeGA]AAFN[PyrS2][3Thi][Bta]T-NH2 (staple 1-4, 4-11; also: staple isomer composition, earlier-eluting HPLC peak) [I-942]",1280 nM
2,"Ac-[αAllylPro]D[tBuAla][B5(5)]D[TfeGA]AAFN[PyrS2″][3Thi][Bta]A-NH2 (staple 1-4, 4-11; also: staple isomer composition, earlier-eluting HPLC peak) [I-944]",761 nM
3,"Ac-[αAllylPro]D[tBuAla][B5(5)]D[TfeGA]AAFN[PyrS2″][3Thi][Bta]A-NH2 (staple 1-4, 4-11; also: staple isomer composition, later-eluting HPLC peak) [I-945]",1080 nM
4,"Ac-[αAllylPro]D[tBuAla][B5(5)]D[TfeGA]AAFN[PyrS2″][3Thi][Bta]T-NH2 (staple 1-4, 4-11; also: staple isomer composition, later-eluting HPLC peak) [I-943]",1990 nM
5,"Ac-[αAllylPro]D[tBuAla][B5(22)]D[TfeGA]AAFN[PyrS2][3Thi][Bta]S-NH2 (staple 1-4, 4-11; also: staple isomer composition, earlier-eluting HPLC peak) [I-940]",1740 nM
6,"Ac-[αAllylPro]D[tBuAla][B5(22)]D[TfeGA]AAFN[PyrS2][3Thi][Bta]S-NH2 (staple 1-4, 4-11; also: staple isomer composition, later-eluting HPLC peak) [I-941]",2110 nM
